Key:
Assay type in all cases: biochemical
[1] = Specific activity of the purified MAO mutant active fraction against amylamine; details: active fraction after QSepharose, protein 1 mg·ml^−1
Method: LB medium (6×300 ml) containing ampicillin (100 μg·ml^−1) in 1 L baffled flasks was inoculated with a single colony of monoamine oxidase mutant from an LB agar plate. Cultures were incubated at 30° C. for 22 hours (OD600˜3.6) then harvested and washed with phosphate buffer (50 mM, pH 8) to yield a yellow-brown pellet (11.2 g).
The pellet was resuspended in Tris/HCl buffer (25 mM, pH 7.8, 30 ml) and sonicated on ice (30 s on, 30 s off for 10 minutes). The suspension was then centrifuged (20,000 rpm, 4° C.) until clear supernatant was obtained and the supernatant dialysed against Tris/HCl buffer (25 mM, pH 7.8). The cell free extract was filtered through 0.45 μm sterile membrane and chromatographed on a QSepharose anion exchange column. Fractions were assayed using colorimetric hydrogen peroxide based assay and active fractions were stored at −80° C. The active fraction has a protein content of 1 mg·ml^−1, and a specific activity of 0.193 U·mg^−1 against amylamine. […]
The spectrophotometer was blanked against assay mixture and HRP. Enzyme was added and the absorbance at 500 nm measured at 3 s intervals for a 10 minute period.

[2] = Cell free extracts assayed towards L-AMBA; details: 240 minutes
Method: To 895 ul Assay Mixture was Added: • 5 μl HRP (Sigma, P6782) (1 mg/ml)
Sample (100 μl) was added and absorbance at 510 nm measured after 24 hours against a control without sample.
This was achieved by incubating 50 μl of each sample for 240 minutes and specific activities were determined. (Table 4)

[3] = Specific activities of partially purified MAO WT and MAOArg259/260 towards amylamine
Method: MAO WT and MAOArg259/260 were partially purified from recombinant E. coli BL21(DE3) harbouring a pET16b carrying the corresponding mao-n gene. Cell free extracts were prepared by sonication and the specific activities of MAO WT and MAOArg259/260 towards AA were measured for both the soluble and insoluble fractions. (Table 3)

Molecule	specific activity against amylamine [1]	ΔAbs 510 nm ([2]; 50 μl sample)	Soluble fraction specific activity [2]	Total activity [3]	Insoluble fraction specific activity ([3]; insoluble fraction)	Soluble fraction specific activity ([3]; soluble fraction)
MAO mutant: A. niger monoamine oxidase variant with serine replacing asparagine at position 336 (SEQ ID NO: 2) (protein, Variant monoamine oxidase enzyme generated by direct evolution) MTSRDGYQWTPETGLTQGVPSLGVISPPTNIEDTDKDGPWDVIVIGGGYCGLTATRDLTVAGFKTLLLEARDRIGGRSWSSNIDGYPYEMGGTWVHWHQSHVWREITRYKMHNALSPSFNFSRGVNHFQLRTNPTTSTYMTHEAEDELLRSALHKFTNVDGTNGRTVLPFPHDMFYVPEFRKYDEMSYSERIDQIRDELSLNERSSLEAFILLCSGGTLENSSFGEFLHWWAMSGYTYQGCMDCLISYKFKDGQSAFARRFWEEAAGTGRLGYVFGCPVRSVVNERDAARVTARDGREFVAKRVVCTIPLNVLSTIQFSPALSTERISAMQAGHVSMCTKVHAEVDNMDMRSWTGIAYPFNKLCYAIGDGTTPAGNTHLVCFGTDANHIQPDEDVRETLKAVGQLAPGTFGVKRLVFHNWVKDEFAKGAWFFSRPGMVSECLQGLREKHGGVVFANSDWALGWRSFIDGAIEEGTRAARVVLEELGTKREVKARL	0.193 U·mg^−1					
MAO WT: wild-type Aspergillus niger monoamine oxidase (SEQ ID NO:1) expressed in E. coli BL21(DE3) (protein, Aspergillus niger) MTSRDGYQWTPETGLTQGVPSLGVISPPTNIEDTDKDGPWDVIVIGGGYCGLTATRDLTVAGFKTLLLEARDRIGGRSWSSNIDGYPYEMGGTWVHWHQSHVWREITRYKMHNALSPSFNFSRGVNHFQLRTNPTTSTYMTHEAEDELLRSALHKFTNVDGTNGRTVLPFPHDMFYVPEFRKYDEMSYSERIDQIRDELSLNERSSLEAFILLCSGGTLENSSFGEFLHWWAMSGYTYQGCMDCLISYKFKDGQSAFARRFWEEAAGTGRLGYVFGCPVRSVVNERDAARVTARDGREFVAKRVVCTIPLNVLSTIQFSPALSTERISAMQAGHVNMCTKVHAEVDNMDMRSWTGIAYPFNKLCYAIGDGTTPAGNTHLVCFGTDANHIQPDEDVRETLKAVGQLAPGTFGVKRLVFHNWVKDEFAKGAWFFSRPGMVSECLQGLREKHGGVVFANSDWALGWRSFIDGAIEEGTRAARVVLEELGTKREVKARL		0.06	3.6 × 10^−5 U · mg^−1	0.57 U	0.33 U · mg^−1	0.23 U · mg^−1
